Laboratory results published in paper PMC10897159, “Structural insights into the activation mechanism of antimicrobial GBP1” (The EMBO Journal, 2024).
Substitutions are numbered along the chain they refer to. Names may count otherwise.

How the values were obtained:
[1] = biological target: GBP1 M139E, non-farnesylated (human) (UniProt P32455); assay: SEC; analytical SEC (Superdex 200 5/150), 20 µM protein with 200 µM GDP, 300 µM AlCl3, 10 mM NaF (GDP•AlFx); 50 mM Tris-HCl pH 7.9, 150 mM NaCl, 5 mM MgCl2
[2] = biological target: GBP1 M139R, non-farnesylated (human) (UniProt P32455); assay: as above
[3] = biological target: GBP1 Δ207-223, non-farnesylated (human) (UniProt P32455); assay: cross-linking; BS3 at 20-times molar excess, 20 µM protein, with 200 µM GDP, 300 µM AlCl3, 10 mM NaF (GDP•AlFx); 50 mM HEPES, 150 mM NaCl, 5 mM MgCl2; SDS-PAGE
[4] = biological target: the molecule itself; assay: SEC; analytical SEC (Superdex 200 5/150), 20 µM protein with 200 µM GDP, 300 µM AlCl3, 10 mM NaF (GDP•AlFx); 50 mM Tris-HCl pH 7.9, 150 mM NaCl, 5 mM MgCl2
[5] = biological target: the molecule itself; assay: specific GTPase activity against protein concentration (HPLC), quadratic fit; apparent Kd of dimer formation; non-farnesylated GBP1, 1 mM GTP, 37 °C, 50 mM Tris-HCl pH 7.9, 150 mM NaCl, 5 mM MgCl2; dimer to monomers
[6] = biological target: the molecule itself; assay: cross-linking; BS3 at 20-times molar excess, 20 µM protein, with 200 µM GDP, 300 µM AlCl3, 10 mM NaF (GDP•AlFx); 50 mM HEPES, 150 mM NaCl, 5 mM MgCl2; SDS-PAGE
[7] = biological target: the molecule itself; assay: light scattering-based polymerization assay; 10 µM farnesylated GBP1, polymerization started with 1 mM GTP (for the pivot point mutants also with LPS added); 50 mM Tris-HCl pH 7.9, 150 mM NaCl, 5 mM MgCl2; absorbance at 350 nm over 40 min; dimers to polymers

Molecule: GBP1 M139E, non-farnesylated (from UniProt P32455 1-592) (natural protein)
- stoichiometry N [1]: 2

Molecule: GBP1 M139R, non-farnesylated (from UniProt P32455 1-592) (natural protein)
- stoichiometry N [2]: 2

Molecule: GBP1 Δ207-223, non-farnesylated (from UniProt P32455 1-592) (natural protein)
- stoichiometry N [3]: 2

B1: isolated LG domain of GBP1 Δ207-213 (domain or fragment, human, UniProt P32455 1-317, looked up)
chain: MASEIHMTGPMCLIENTNGRLMANPEALKILSAITQPMVVVAIVGLYRTGKSYLMNKLAGKKKGFSLGSTVQSHTKGIWMWCVPHPKKPGHILVLLDTEGLGDVEKGDNQNDSWIFALAVLLSSTFVYNSIGTINQQAMDQLYYVTELTHRIRSKSSPDENENEVEDSADFVSFFPDFVWTLRDFSLDLEADGQPLTPDEYLTYSLGGGSGGGSQKDETFNLPRLCIRKFFPKKKCFVFDRPVHRRKLAQLEKLQDEELDPEFVQQVADFCSYIFSNSKTKTLSGGIQVNGPRLESLVLTYVNAISSGDLPCMENAVL
notes: LG domain of GBP1, human; stop codon in place of A318; also called α4’ variant LG domain construct; source: E. coli, pQE-80L, purified (Ni Sepharose HP, Superdex 200)
- stoichiometry N [4]: 2

B2: GBP1 Δ207-216, non-farnesylated (natural protein, human, UniProt P32455 1-592, looked up)
chain: MASEIHMTGPMCLIENTNGRLMANPEALKILSAITQPMVVVAIVGLYRTGKSYLMNKLAGKKKGFSLGSTVQSHTKGIWMWCVPHPKKPGHILVLLDTEGLGDVEKGDNQNDSWIFALAVLLSSTFVYNSIGTINQQAMDQLYYVTELTHRIRSKSSPDENENEVEDSADFVSFFPDFVWTLRDFSLDLEADGQPLTPDEYLTYSLGGGSETFNLPRLCIRKFFPKKKCFVFDRPVHRRKLAQLEKLQDEELDPEFVQQVADFCSYIFSNSKTKTLSGGIQVNGPRLESLVLTYVNAISSGDLPCMENAVLALAQIENSAAVQKAIAHYEQQMGQKVQLPTETLQELLDLHRDSEREAIEVFIRSSFKDVDHLFQKELAAQLEKKRDDFCKQNQEASSDRCSALLQVIFSPLEEEVKAGIYSKPGGYRLFVQKLQDLKKKYYEEPRKGIQAEEILQTYLKSKESMTDAILQTDQTLTEKEKEIEVERVKAESAQASAKMLQEMQRKNEQMMEQKERSYQEHLKQLTEKMENDRVQLLKEQERTLALKLQEQEQLLKEGFQKESRIMKNEIQDLQTKMRRRKACTIS
notes: GBP1, human, full-length construct; also called helix α4’ variant; source: E. coli, pQE-80L, purified (Ni Sepharose HP, Superdex 200)
- fold lower dimerization affinity than wild-type GBP1 [5]: 1.8 fold
- stoichiometry N [6]: 2

B3: GBP1 Δ207-216, farnesylated (natural protein, human, UniProt P32455 1-592, looked up)
chain: B2 chain
modifications: farnesyl moiety at the C-terminal CaaX box motif
notes: GBP1, human, full-length construct; also called helix α4’ variant
- binding result [6]: binds

B4: isolated LG domain of GBP1 Δ207-223 (domain or fragment, human, UniProt P32455 1-317, looked up)
chain: MASEIHMTGPMCLIENTNGRLMANPEALKILSAITQPMVVVAIVGLYRTGKSYLMNKLAGKKKGFSLGSTVQSHTKGIWMWCVPHPKKPGHILVLLDTEGLGDVEKGDNQNDSWIFALAVLLSSTFVYNSIGTINQQAMDQLYYVTELTHRIRSKSSPDENENEVEDSADFVSFFPDFVWTLRDFSLDLEADGQPLTPDEYLTYSLGGGSLCIRKFFPKKKCFVFDRPVHRRKLAQLEKLQDEELDPEFVQQVADFCSYIFSNSKTKTLSGGIQVNGPRLESLVLTYVNAISSGDLPCMENAVL
notes: as for B1
- stoichiometry N [4]: 2

B5: GBP1 Δ207-213, farnesylated (natural protein, human, UniProt P32455 1-592, looked up)
chain: MASEIHMTGPMCLIENTNGRLMANPEALKILSAITQPMVVVAIVGLYRTGKSYLMNKLAGKKKGFSLGSTVQSHTKGIWMWCVPHPKKPGHILVLLDTEGLGDVEKGDNQNDSWIFALAVLLSSTFVYNSIGTINQQAMDQLYYVTELTHRIRSKSSPDENENEVEDSADFVSFFPDFVWTLRDFSLDLEADGQPLTPDEYLTYSLGGGSGGGSQKDETFNLPRLCIRKFFPKKKCFVFDRPVHRRKLAQLEKLQDEELDPEFVQQVADFCSYIFSNSKTKTLSGGIQVNGPRLESLVLTYVNAISSGDLPCMENAVLALAQIENSAAVQKAIAHYEQQMGQKVQLPTETLQELLDLHRDSEREAIEVFIRSSFKDVDHLFQKELAAQLEKKRDDFCKQNQEASSDRCSALLQVIFSPLEEEVKAGIYSKPGGYRLFVQKLQDLKKKYYEEPRKGIQAEEILQTYLKSKESMTDAILQTDQTLTEKEKEIEVERVKAESAQASAKMLQEMQRKNEQMMEQKERSYQEHLKQLTEKMENDRVQLLKEQERTLALKLQEQEQLLKEGFQKESRIMKNEIQDLQTKMRRRKACTIS
modifications: farnesyl moiety at the C-terminal CaaX box motif
notes: as for B3
- binding result [6]: binds

B6: GBP1 Δ207-213, non-farnesylated (natural protein, human, UniProt P32455 1-592, looked up)
chain: B5 chain
notes: as for B2
- fold lower dimerization affinity than wild-type GBP1 [5]: 3 fold
- stoichiometry N [6]: 2

B7: GBP1 D199A, farnesylated (natural protein, human, UniProt P32455 1-592, looked up)
chain: MASEIHMTGPMCLIENTNGRLMANPEALKILSAITQPMVVVAIVGLYRTGKSYLMNKLAGKKKGFSLGSTVQSHTKGIWMWCVPHPKKPGHILVLLDTEGLGDVEKGDNQNDSWIFALAVLLSSTFVYNSIGTINQQAMDQLYYVTELTHRIRSKSSPDENENEVEDSADFVSFFPDFVWTLRDFSLDLEADGQPLTPAEYLTYSLKLKKGTSQKDETFNLPRLCIRKFFPKKKCFVFDRPVHRRKLAQLEKLQDEELDPEFVQQVADFCSYIFSNSKTKTLSGGIQVNGPRLESLVLTYVNAISSGDLPCMENAVLALAQIENSAAVQKAIAHYEQQMGQKVQLPTETLQELLDLHRDSEREAIEVFIRSSFKDVDHLFQKELAAQLEKKRDDFCKQNQEASSDRCSALLQVIFSPLEEEVKAGIYSKPGGYRLFVQKLQDLKKKYYEEPRKGIQAEEILQTYLKSKESMTDAILQTDQTLTEKEKEIEVERVKAESAQASAKMLQEMQRKNEQMMEQKERSYQEHLKQLTEKMENDRVQLLKEQERTLALKLQEQEQLLKEGFQKESRIMKNEIQDLQTKMRRRKACTIS
modifications: farnesyl moiety at the C-terminal CaaX box motif
notes: GBP1, human, full-length construct with D199A in helix α4; also called pivot point mutant
- binding result [7]: binds

B8: GBP1 D199A, non-farnesylated (natural protein, human, UniProt P32455 1-592, looked up)
chain: B7 chain
notes: GBP1, human, full-length construct with D199A in helix α4; also called pivot point mutant; source: E. coli, pQE-80L, purified (Ni Sepharose HP, Superdex 200)
- binding result [6]: binds

B9: GBP1 D199K, farnesylated (natural protein, human, UniProt P32455 1-592, looked up)
chain: B7 chain with A199K
modifications: farnesyl moiety at the C-terminal CaaX box motif
notes: GBP1, human, full-length construct with D199K in helix α4; also called pivot point mutant
- binding result [7]: binds

B10: GBP1 D199K, non-farnesylated (natural protein, human, UniProt P32455 1-592, looked up)
chain: B7 chain with A199K
notes: GBP1, human, full-length construct with D199K in helix α4; also called pivot point mutant; source: E. coli, pQE-80L, purified (Ni Sepharose HP, Superdex 200)
- binding result [6]: binds

B11: isolated LG domain of GBP1 Δ207-216 (domain or fragment, human, UniProt P32455 1-317, looked up)
chain: MASEIHMTGPMCLIENTNGRLMANPEALKILSAITQPMVVVAIVGLYRTGKSYLMNKLAGKKKGFSLGSTVQSHTKGIWMWCVPHPKKPGHILVLLDTEGLGDVEKGDNQNDSWIFALAVLLSSTFVYNSIGTINQQAMDQLYYVTELTHRIRSKSSPDENENEVEDSADFVSFFPDFVWTLRDFSLDLEADGQPLTPDEYLTYSLGGGSETFNLPRLCIRKFFPKKKCFVFDRPVHRRKLAQLEKLQDEELDPEFVQQVADFCSYIFSNSKTKTLSGGIQVNGPRLESLVLTYVNAISSGDLPCMENAVL
notes: as for B1
- stoichiometry N [4]: 2
